Usually share remaining stands for what is left of the initial amount, in per cent.

Positions of bridges follow the written chain, without caps; N, C: chain ends. Non-standard residues stand in square brackets, D forms with d. Residues, ends and D or L forms follow the SMILES beside them. *: point of attachment. DOTA = O=C(O)CN1CCN(CC(=O)O)CCN(CC(=O)*)CCN(CC(=O)O)CC1

Here are results for one molecule from article PMC13142116, “Development and structure-guided characterization of a novel ACE2-binding macrocyclic peptide” (Journal of Structural Biology: X, 2026).

One series in a line: in vitro. The class given is in vitro ADME. To be noted: mouse, plasma. Here is the method: Additionally, the integrity of [^67Ga]Ga-DOTA-WJL-63 (20 MBq/nmol) in mouse and human blood plasma (Rockland Immunochemicals, Inc. PA, USA and Blood donation SRK Aargau-Solothurn, Switzerland) was determined using thin layer chromatography (TLC). Reversed phase C-18 plates (TLC Silica gel 60 RP-18; Merck) were used as the stationary phase and a mixture of citrate buffer (pH 5.5; 0.1 M) and acetonitrile (7:3; v/v) as the mobile phase. Under these conditions, uncoordinated gallium-67 migrated with the front while the radiopeptide and potential larger fragments migrated to the center of the plate. […] The quantification of the signals was carried out using the OptiQuant software (version 5.0, Bright Instrument Co Ltd., PerkinElmer). The obtained chromatograms were analyzed by determination of the peak area of the radiolabeled peptide, the released gallium-67 as well as degradation products of unknown structure. The quantity of the intact product was expressed as the percentage of the sum of integrated peak areas of the entire chromatogram and set in relation to the value determined at the respective timepoints of the radiopeptide diluted in saline which was set as 100% to correct for TLC artefacts. The results were then expressed as average ± SD from n = 3 independent experiments.

Series [1] is classed as physicochemical. Here is the method:
The distribution coefficient (logD value) of [^67Ga]Ga-DOTA-WJL-63 was determined using a shake-flask method as previously reported for DX600 radiopeptides ([Beyer et al., 2023]). The distribution coefficients were indicated as the average of n = 3 independent measurements ± standard deviation (SD), each performed with five replicates.

In the series “in vitro”, `CC[C@H](C)[C@@H]1NC(=O)[C@H](CCC(N)=O)NC(=O)[C@H]([C@@H](C)O)NC(=O)[C@H](CO)NC(=O)[C@@H](Cc2ccc(O)cc2)NC(=O)CSC[C@@H](C(=O)NCC(=O)N[C@@H](CO)C(=O)NCC(=O)N[C@@H](CO)C(=O)NCC(=O)N[C@@H](CO)C(=O)N[C@@H](CCCCNC(=O)CN2CCN(CC(=O)O)CCN(CC(=O)O)CCN(CC(=O)O)CC2)C(N)=O)NC(=O)CNC(=O)[C@H](CCCNC(=N)N)NC(=O)[C@H](CO)NC(=O)[C@H](CC(=O)O)NC(=O)[C@H](CCCNC(=N)N)NC(=O)[C@H]([C@@H](C)O)NC(=O)[C@H](Cc2ccccc2)NC(=O)CNC(=O)[C@H](CCCNC(=N)N)NC(=O)[C@H](CO)NC1=O` [[^67Ga]Ga-DOTA-WJL-63, metal not drawn] ({CH2CO}-[dY]STQISRGFTRDSRGCGSGSGSK(DOTA)-NH2; thioether N-16) had an amount remaining at 1 h, 10 MBq/200 µL of 91% and a fraction remaining at 3 h, 10 MBq/200 µL of 69%. For the same molecule, in series [1], the logD value result is recorded as “− 4.4 ± 0.1”.
